Source: the nanobody polyreactivity screen of Harvey et al. (2022)

Experiment: yeast display, Sf9 membrane polyspecificity reagent, FACS + sequencing; frameworks hold sequencing errors
Outline: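 Nanobodies from a synthetic yeast display library (Saccharomyces cerevisiae BJ5465), induced 36–48 hours with galactose, were stained 1 hour at 4 °C with 10% biotinylated, detergent-solubilized Sf9 membrane reagent, enriched on streptavidin microbeads, then FACS-sorted. Anti-HA (expression) and streptavidin (reagent binding) fluorescence set low and high (top ~1%) gates. Polyreactivity labels come from the gate of origin. Genes were colony-PCR amplified, MiSeq 2 × 250 sequenced and filtered by CDR length.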

Row | Sequence | polyreactivity (PSR sort gate)
1 | QVQLVESGGGLVQAGGSHRLSCAASGRTFYTNAMGWYRQEPGKERELVARIRRGGTTNYADSVKGRFTISRDNAKNTVYLQMNILKPEDTAVSYCNARRHGGVQPFYFYRNQYELDYWGLGTQVTVSS | high polyreactivity
2 | QVQLVESGGGLVQAGGSLRLSCAASGFTFYRNARGWYRQAPGKERELVAAISISGGSTYYADSVKGRFTISRDNAKNTVYLQMNSLKPEDTAVYYCAAYYYRDRYSRVKVTYWGQGTQVTVSS | high polyreactivity
3 | QVQLVESGGGLVQAGGSLRLSCAASGFIFRSYAMGWYRQAPGKERELVAAISFSGGRTYYADSVKGRFTISRDNAKNTVYLQMNSLKPEDTAVYYCAAVPARIGVVLHIYTDSHYDYWGQGTQVTVSS | low polyreactivity
4 | QVQLVESGGGLVQAGGSLRLSCAASGSTFAANAMGWYRQAPGKERELVAAIDSSTGSTYYADSVKGRFTISRDIAKNNVFLQMNRLKPEDTAVYYCNKTSFLVKLDYWGQGTQVTVSS | low polyreactivity
5 | QVQLVESGGGLVQAGGSLRLSCAASGSTIDYYAMGWYRQAPGKERELVAAIDWSGDSTYYADSVKGRFTISRDNAKNTVYLQMNSLKPEDTAVYYCAADLDSRGTYGRYEYWGQGTQVTVSS | low polyreactivity
6 | QVQLVESGGGLVQAGGSLRLTCAASGSIFGTYAMGWYRQAPGKERQLVAAISWSDGSTYYADSVKGRFTISRDTAKNTFYLQMNSRKPEDTAVEYCAKVYRSIGPNVSRYGLSYYDWGHGTQVTVSS | low polyreactivity
7 | QVQLVESGGGIFQAGGSLRLSCDASGFTIGAYAMGWYRQAPGKERELVAAITLRTGGSTYYADSLKGRFTISRDNAKNTVYLQMNSLKPEDTAVYYCATYGSYWRKSRAPGYYYGGQGTQVTVSS | high polyreactivity
8 | QVQLVESGGGLFQAGGSLRLTCAASGSTFPYHTMGWYRQATGKQRDFVAAITGDGGTTYYADSVKGRFTISRDNAKNTVYLQMNSLKPEDTAVYYCNALYAPYGWFYCLYDYWGPGTQVTVSS | low polyreactivity
9 | QVQLEDSGGGLVQAGGSLRLSCAASGRTFNKYAMGWYRQAPGKERELVAAINTSGGSTYYADSVKGRFTISRDNAKNTVYLQMNSLKPEDTAVYYCAAQSRSVYGRSYGYWGQGTQVTVSS | high polyreactivity
10 | QVQLVESGGGLVQAGGSLRLSCAASGSTFIPNAMGWYRQAPGKERELVAAISTGGSTNYADSVKGRFTISRDNAKNTVYLQMNSLKPEDTAVYYCNDRRGYFNPGRRFYYWGQGTQVTVSS | low polyreactivity
11 | QVQLVESGGGLVQAGGSLRLICAASGITFDGYAMGWYRQAPGKERELVAAISWSGGRTYYADSVKGRFTISRDNAKNTVYLQMNSLKPEDTAVYYCAVYRRGVVYLLTSGVDYWGQGTQVTVSS | high polyreactivity
12 | QVQLVESGGGLVQAGGSLRLSCAASGRTFKGYTMGWYRQAPGKERELVAAITRSGGGTYYADSVKGRFTISRDNAKNTVYLQMNSLKPEDTAVYYCAAYNGSRRQEFDYWGQGTQVTVSS | high polyreactivity
13 | QVPLVESGGGLVQAGGSLRLSCAASGGIFYSYAMGWYRQAPGKERELVPAIRTNGGTTYYADSVKGRFTISRDNAKNTVYLQLNSLKQEDTAVYYCDALPGSYYDRGEYDYWGQGTQVTVSS | low polyreactivity
14 | QVQLVESWGGLVQAGGSLRLSCDASGSIFVSNAMGWYRQAPGKERELVAAISRGGVNTNYADSVKGRFTISRDNAKNTVYLQMNSLKQEDTAVYYCAAKWSHVRDGPKYDYCGQGTQVTVSS | low polyreactivity
15 | QVQLVESGGGLVQAGGSLRLSCAASGFTLIYYAMGWYRQAPGKERELVAGISRGVSTSYADSVMGRFTISRDNAKNTVYLQMNSLKPEDTAVYYCAAEGSPVDQSSIYDYWGQGTQVTVSS | low polyreactivity
16 | QFQLVESGGGLDQAGGSLRLSCAASGSIFSYYDMGGDRQAPGKDRELVAGNSRGGSTNYADSVKGRFTISRDNAKKTVYLQMNSLKPEDTAVYYCNADQSSRTYPFRLSRRSWLYGYWGQGTQVTVSS | low polyreactivity
17 | QVQLVESGGGLVQAGGSLRLSCAASGFTFTTYVMGWYRQAPGKERELVAAISRRGTSTRYADSVKGRFTISRDNAKNTVYLQMNSLKPEDTAVYYCAADRPYSIVPYDYWGQGTQVTVSS | high polyreactivity
18 | QVQLVESGGGLVQAGGSLRLSCAASGRTFGRYAKGWSRQAPGKERELVAAISYSTDSTYYADSVKGRFTISRDNAKNTDYLQMNSLKPEYTAVYYCATDSVNVGSYVGDKHDYWGHGTQVTVSS | low polyreactivity
19 | QVQLVESGGGLVQAGGSLRLSCAASGSIFALYAMGWYRQAPGKERELVAAISYRGGRTYYADSVKGRFTISRDNAKNTVYLQMNSLKPEDTAVYYCKAAYGTSYLYNSEFYAAFTYDYWGQGTQVTVSS | low polyreactivity
20 | HVQLVESGGGLVQAGGSLRLSCAASGSIFGLYAMGWSRQAPGKEWELVAAITRGDSTNYADSVKGRFTISRDNAKNTVYLQMNSLKPEDTAVYYCNAVYAGWRGGNYWGQGTQVTVSS | low polyreactivity

Row | Sequence | polyreactivity (PSR sort gate)
21 | QVQLVESGGGLVQAGGSHRLSCAASGLIFYYYAMGWYRQAPGKERELVAAITWTAGSTSYADSVKGRFTISRDNAKNTVYLQMNSLKPEDTAVYYCAADYRHDTFSNEYDYWGQGTQVTVSS | low polyreactivity
22 | QVQLVESGGGLVQAGGSLRLSCAASGRTFRPYAMGWYRQAPGKERELVAAIDSSGTSTYYADSVKGRFTISRDNAKNTVYLQMYSLKPEDTAVYYCAKAWPDHWYSRYDYWGQGTQVTVSS | low polyreactivity
23 | QVQLVESGGRLVQAGGSLRLSCAASGRIFNHYAMGWYRQAPGKERELVAAIDRSGGSTYYADSVKGRFTISRDNAKNTVYFQMNSLKPEDTAVYYCNARRIIAKYGYWGQGTQVTVSS | high polyreactivity
24 | QVRLVESGGGLVQAGRSLRLSCAASGRIFWNYAMGWYRQAPGKERELVATIDKSGGSTRYADSVKGRFTISRDTAKNTVYLQMNSLKPEDTAVYYCAARGPASRGFRGARSGLTFDYWGQGTQVTVSS | low polyreactivity
25 | QVQLVESGGGLVQAGGSLRLSCAASGNTFTYYALGWYRQAPGTEREVVASISSGGSTNYADSVKGRFTISRDNAKNTVYLQMNRLKPEDTAVYYCARGWSFSTRRFQHTRYYYWGQGTQVTVSS | high polyreactivity
26 | QVQLVESGGGLVQAGGSLRLSCAASGSIFYRYAMGWYRQAPGKERELVAAISRSGGRTYYADSVKGRFTISRDNAKNTVYLQMNSLKPEDTAVYYCAAESTVGTDLGGDSWGQGTQVTVSS | high polyreactivity
27 | QVQLVESGGGLVQAGASLSLSSAASGYIFYRYAMGWYRQAPGKERELVAAISSNGVSTYYADSVKGRFTISRDNAKNTVYLQLISLKPEDTAVYYCARDVYASPRRYNSRYNYWGQGTQVTVSS | low polyreactivity
28 | QVQLVESGGGLVQAGGSLRLSCAASGSTFVYYAMGWYRQAPGKERELVATINYNGGSTSYADSVKGRFTISRDNEKNTVYLQMNSLKPEDTAVYYCAKDRYYTWGDYWGQGTQVTVSS | low polyreactivity
29 | QVQLVESGGGLVQSGGSLRLSCAASGRIFVPNAMGWYRQAPGKERELVAAITGSGGSTYADSVKGRFTISRDNAKNTVYLQMNSLNPEDTAVYYCAKKTWYSYYWGQGTQVTVSS | high polyreactivity
30 | QVQLQESGGGLVLAGGSLRLSCAASGSISAQAYMGWDRQAPGKEREHVAGINYGDNTNYADSVKGRFTISRDNEHRVSADEQPETGRYRGVLLRGFLELFYYYIYWGQGTQVTVSS | high polyreactivity
31 | QVQLVESGGGLVQAGGSLRLSCAASGRTFIIYTMGWYRQAPGKEREFVAAITRSGGGTYYADSVKGRFTISRDNAKNTVYLQMNSLKPEDTAVYYCAADRFYDQAYDYWGQGTQVTVSS | low polyreactivity
32 | QVQLVESGGGLVQAGGSLRLSCAASGRIFYRNAMGWYRQAPGKEREFVAAISSGGSTYYADSVKGRFTISRDNAKNTVYLQMNSLKPEDTAVYYCATRSPERRVYYTYSGLFDYWGQGTQVTVSS | high polyreactivity
33 | QVQLQESGGGLVQAGGSLRQSYAASGYIFPSLAMGWYRQAPGKEREFVAAIGRGSTNNYADSVKGRFTISRDNAKNTAYQQMISLKPEDTAVYYCAAAASPLTRHLYWGQGTQVSVSS | low polyreactivity
34 | QVQLVESGGGLVQAGGSLRLSCAASGFTFKYNAMGWYRQAPGKERELVAAISSSGSTNYADSVKGRFTISRDNAKNTVYLQMNSLKPEDTAVYYCAARWRSVLAAGTRPVSFDYWGQGTQVTVSS | low polyreactivity
35 | QVQLVESGGGLVQAGGSLRLSCAASGRIFFLYAMGWSRQAPGKERELVAAITKSGGSTYADSVKGRYTISRDNAKNPVYLQMNSLKPEDTAVYYCATENTDSRDSGYIVKYGSDYWGQRTQVTVSS | low polyreactivity
36 | QVQLVESGGGLVQAGCSLRLSCAASGFTFPIYAMGWYRQAPGKEREFVAAITASGDNTYYADSVKGRFTISRDNAKNTVYLQINSLKPEDTAVYYCAADWFVDWWEYDYWGQGTQVTVSS | low polyreactivity
37 | QVQLVESGGGLVQAGGSLRLSCAASGSIFYFYTMGWYRQAPGKEREFVAAINGIGGSTYYADSVKGRFTISRDNAKNTVYLQMNSLKPEDTAVYYCAADAPWFKRNARKYNYWGQGTQVTVSS | low polyreactivity
38 | QVQLVESGGGLVQAGGSLRLTCAASGITFVYNAMGWYRQAPGKERELVAAISWRGGSTYYADYVKGRFTISRDNAKNTVYLQMNSLKPEDTAVYYCNNLPTYPDYGYDSWGQGTQVTVSS | high polyreactivity
39 | QVQLVESGGGLVQAGGSLRLSCAASGRTVGWYAMGWYRQAPGKERELVAAITWRGGSTYYADSVKGRFTISRDNAKNTVYLQMTSLKPEDTAVYYCAAAAEKRSYYWGQGTQVTVSS | high polyreactivity
40 | QVQLVESGGGLVQAGGSLRLSCAASGRIFVGYYAMGWYRQAPGKERELVAAITIGGRTYYADSVKGRFTISRDNAKNTVYLQMNSLKPEDTAVYYCAASKYTRAYQEYGYWGQGTQVTVSS | high polyreactivity
